Assay results as given in patent publication US20260365734 (published 2026).
Numbering of substitutions follows the chain as printed.

T1: human VEGFA (human, UniProt P15692)
T1 chain: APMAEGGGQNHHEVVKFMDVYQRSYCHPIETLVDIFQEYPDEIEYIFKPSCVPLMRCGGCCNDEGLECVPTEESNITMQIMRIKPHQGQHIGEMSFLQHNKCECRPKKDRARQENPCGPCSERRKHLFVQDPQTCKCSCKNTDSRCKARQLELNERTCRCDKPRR

B1: 4E2-Alpaca-NT (antibody, V domains shown)
VH: EVQLVESGGGSVQDGGSLTLSCAASGFSAGDVVMAWYRQAPGKQREFVANIAASSTTRYTDSVKGRFTISRDNAKNTVYLQMNSLKSEDTAVYYCNALVWTGSSYNNWGQGTQVTVSS
B2: 4D2-hv1-NT (antibody, V domains shown)
VH: QVQLVESGGGLVKPGGSLRLSCAASGFSASDVVMAWYRQAPGKQREFVANLGASSTTRYADSVKGRFTISRDNAKNSLYLQMNSLRAEDTAVYYCNALVWTGSSYNNWGQGTQVTVSS
B3: 1F4-hv7-NT (antibody, V domains shown)
VH: B2 VH with L51I, G52A
B4: 4D2-hv4-NT (antibody, V domains shown)
VH: B2 VH with A49S, R58N
B5: 4E2-hv1-NT (antibody, V domains shown)
VH: B2 VH with Q1E, S30G, L51I, G52A
B6: 4D2-hv3-NT (antibody, V domains shown)
VH: B2 VH with A49S, R58Y
B7: 4D2-hv2-NT (antibody, V domains shown)
VH: B2 VH with A49S
B8: 4D2-Alpaca-NT (antibody, V domains shown)
VH: B2 VH with K13Q, P14A, N73D, S77T, L78V, Y79S, R86K, A87S
B9: 4E2-hv3-NT (antibody, V domains shown)
VH: B2 VH with Q1E, S30G, A49S, L51I, G52A, R58Y
B10: 4E2-hv2-NT (antibody, V domains shown)
VH: B2 VH with Q1E, S30G, A49S, L51I, G52A
B11: 3H1-hv7 (antibody, V domains shown)
VH: QVQLVESGGGVVQPGGSLRLSCAASGIDFSDTHMHWVRQAPGKQRELVAIITSGGSTDYVDSVKGRFTISRDNSKNTLYLQMNSLRAEDTAVYYCNARRSTIYWGQGTQVTVSS
B12: 3H1-6D2 (antibody, V domains shown)
VH: B11 VH with S30N, G54R, I102L
B13: 3H1-2A2 (antibody, V domains shown)
VH: B11 VH with S56F
B14: 3H1-1G9 (antibody, V domains shown)
VH: B11 VH with S30D, S56L, R99T
B15: 3H1-2G3 (antibody, V domains shown)
VH: B11 VH with G54S, Y103L
B16: 3H1-3B9 (antibody, V domains shown)
VH: B11 VH with S56F, R99T
B17: 3H1-2F4 (antibody, V domains shown)
VH: B11 VH with T32L, R99S
B18: R2-4E2 (antibody, V domains shown)
VH: B1 VH with T101N
B19: R2-4H8 (antibody, V domains shown)
VH: EVQLVESGGGLVQPGGSLRLSCGASGIFFSGVHMGWYRQAPGKERELVALITDSGSADYVDSVKGRFTISRDNAKNTVYLQMNSLKFEDTAVYYCNARTTTIYWGQGTQVTVSS
B20: R2-4D2 (antibody, V domains shown)
VH: B2 VH with K13Q, P14A, N73D, S77T, L78V, Y79S, R86K, A87S, T101N
B21: R3-2A11 (antibody, V domains shown)
VH: QVQLVESGGDLVQPGGSLRLSCAASGIDFSDTHMGWYRQAPGKQRELVALITSGGFTDYPDSVKGRFTISRDNAKNTMYLQMNTLKLEDTAVYYCNARRTTIYWGQGTQVTVSS
B22: R2-1G10 (antibody, V domains shown)
VH: B19 VH with E1Q, G23A, G31D, V32T, L50I, D53S, S54G, A57T, T99R
B23: R2-1G4 (antibody, V domains shown)
VH: B21 VH with D10G, Q44E, P60A, L87F
B24: R2-6A10 (antibody, V domains shown)
VH: B21 VH with D10G, Q44E, P60A, L87F, T100S
B25: R2-1A3 (antibody, V domains shown)
VH: B21 VH with Q1E, D10G, A23V, I27F, G55A, P60A, M78V, L87F
B26: R1-1C3 (antibody, V domains shown)
VH: B19 VH with E6Q, G23A, G31D, V32T, L50I, D53S, S54G, A57T, S84T, T99R
B27: R2-6D2 (antibody, V domains shown)
VH: B21 VH with D10G, Q44E, P60A, L87F, R99K
B28: R2-3A5 (antibody, V domains shown)
VH: B21 VH with Q1E, D10G, P60A
B29: 5F8-6D6 (antibody, V domains shown)
VH: B11 VH with Q1E, V11L, I27F, H33A, H35S, Q44E, T57V, N96R, S100T
B30: 5F8-8E3 (antibody, V domains shown)
VH: B11 VH with Q1E, V11L, I27F, H35S, Q44E, R99L, S100T
B31: 5F8-8H3 (antibody, V domains shown)
VH: B11 VH with Q1E, V11L, I27F, D31M, H35S, Q44E, S56K, S100A
B32: 5F8-7D5 (antibody, V domains shown)
VH: B11 VH with Q1E, V11L, I27F, S30E, H35S, Q44E, G55C, S100A
B33: 5F8-3A3 (antibody, V domains shown)
VH: B11 VH with Q1E, V11L, I27F, H35S, Q44E, S53G, N96L, S100T
B34: 5F8-8D4 (antibody, V domains shown)
VH: B11 VH with Q1E, V11L, I27F, H33F, H35S, Q44E, S100T
B35: 5F8-4B12 (antibody, V domains shown)
VH: B11 VH with Q1E, V11L, I27F, S30P, H35S, Q44E, S56F, N96R, S100T
B36: 5C12-hv7-NT (antibody, V domains shown)
VH: B2 VH with A49S, L51I, G52A, S54R, S55G, T56S, R58D
B37: 7H3 (antibody, V domains shown)
VH: QVQLVESGGGVVQPGRSLRLSCAASGFTFGPYAMHWVRQAPGKERELVAAIWPSGSITYYADSVKGRFTISRDNSKNTLYLQMNSLRAEDTAVYYCAFGSPTGSITYWGQGTLVTVSS
B38: 4B11 (antibody, V domains shown)
VH: QVQLVESGGGVVQPGRSLRLSCAASGLSFSQYEMHWVRQAPGKEREFVAAISSSGISTYYADSVKGRFTISRDNSKNTLYLQMNSLRAEDTAVYYCAAELVDYHRWGYDYWGQGTLVTVSS
B39: 1G1 (antibody, V domains shown)
VH: QVQLVESGGGVVQPGRSLRLSCAASGLSFSYGTMAWVRQAPGKELELVAALSAGGTITYYADSVKGRFTISRDNSKNTLYLQMNSLRAEDTAVYYCAALGGYSGGSKYPYYDYWGQGTLVTVSS
B40: 1C8 (antibody, V domains shown)
VH: QVQLVESGGGVVQPGRSLRLSCAASGRSFSRYAMAWVRQAPGKERESVAVIGSGGGRTYYADSVKGRFTISRDNSKNTLYLQMNSLRAEDTAVYYCAARIYRVVGSGTYPAGYDYWGQGTLVTVSS

Each binder was assayed against T2, human PD-L1 (cell surface) (human, UniProt Q9NZQ7) (assay: FACS, CHO-h-PD-L1 cells).
T2 sequence (Q9NZQ7 19-238): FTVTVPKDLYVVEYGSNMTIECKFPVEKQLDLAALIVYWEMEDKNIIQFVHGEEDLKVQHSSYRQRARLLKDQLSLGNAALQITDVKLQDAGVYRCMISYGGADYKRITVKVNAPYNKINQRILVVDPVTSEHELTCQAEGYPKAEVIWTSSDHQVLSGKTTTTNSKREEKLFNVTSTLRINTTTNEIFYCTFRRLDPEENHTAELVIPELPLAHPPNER

| EC50 [nM] | Binder |
| --- | --- |
| 0.109 | B1 |
| 0.143 | B2 |
| 0.13 | B3 |
| 0.171 | B4 |
| 0.11 | B5 |
| 0.598 | B6 |
| 0.203 | B7 |
| 0.103 | B8 |
| 0.167 | B9 |
| 0.11 | B10 |

These binders were tested against T3, mouse PD-L1 (cell surface) (mouse, UniProt Q9EP73) (assay: FACS, Hepa1-6 cells).
T3 sequence (Q9EP73 19-238): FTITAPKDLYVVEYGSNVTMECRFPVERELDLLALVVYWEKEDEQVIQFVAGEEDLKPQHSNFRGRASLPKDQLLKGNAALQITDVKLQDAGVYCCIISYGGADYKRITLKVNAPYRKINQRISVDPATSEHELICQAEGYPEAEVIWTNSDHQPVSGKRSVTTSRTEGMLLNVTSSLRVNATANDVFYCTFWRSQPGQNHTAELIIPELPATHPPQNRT

| EC50 [nM] | Binder |
| --- | --- |
| 6.78 | B11 |
| 0.51 | B12 |
| 0.31 | B13 |
| 0.55 | B14 |
| 0.31 | B15 |
| 0.3 | B16 |
| 0.65 | B17 |

What follows are binders tested against T2, human PD-L1 (cell surface) (assay: FACS).

| EC50 [nM] | Binder |
| --- | --- |
| 0.148 | B18 |
| 0.87 | B19 |
| 0.202 | B20 |
| 1.16 | B21 |
| 0.63 | B22 |
| 0.42 | B23 |
| 0.54 | B24 |
| 0.88 | B25 |
| 1.69 | B26 |
| 0.93 | B27 |
| 0.6 | B28 |

Molecular target: T2, human PD-L1 (cell surface)
Test: FACS
Remark: another data set of the same source

| EC50 [nM] | Binder |
| --- | --- |
| 0.52 | B29 |
| 0.57 | B30 |
| 0.51 | B31 |
| 0.51 | B32 |
| 0.73 | B33 |
| 0.49 | B34 |
| 0.63 | B35 |

Each binder was assayed against cynomolgus PD-L1 (cynomolgus) (assay: BLI).
cynomolgus PD-L1 (cynomolgus), sequence (chain, as listed by the source): as the sequence (Q9NZQ7 19-238) above, with A33T, A34S, S62N, R68Q, Q82R, F173L, T185A, T192I, H215L counted along it

| Kd [nM] | Binder |
| --- | --- |
| 3.76 | B2 |
| 3.87 | B3 |
| 3.4 | B5 |
| 4.34 | B36 |
| 3.24 | B10 |

The binders below were run against T2, human PD-L1 (cell surface) (assay: FACS, T24 cells).

| EC50 [nM] | Binder |
| --- | --- |
| 0.05 | B18 |
| 0.041 | B20 |

Each binder was assayed against T3, mouse PD-L1 (cell surface) (assay: FACS, 293T m-PD-L1 cells).

| EC50 [nM] | Binder |
| --- | --- |
| 0.56 | B11 |
| 1.29 | B12 |
| 1.42 | B13 |
| 1.01 | B14 |
| 1.57 | B15 |
| 0.97 | B16 |
| 1 | B17 |

Molecular target: T2, human PD-L1 (cell surface)
Test: FACS, T24 cells
Remark: another data set of the same source

| EC50 [nM] | Binder |
| --- | --- |
| 0.043 | B2 |
| 0.047 | B3 |
| 0.048 | B5 |
| 0.083 | B36 |
| 0.047 | B10 |

The binders below were run against T2, human PD-L1 (cell surface) (assay: FACS, NCI-H441 cells).

| EC50 [nM] | Binder |
| --- | --- |
| 0.041 | B1 |
| 0.065 | B2 |
| 0.056 | B3 |
| 0.112 | B4 |
| 0.039 | B5 |
| 0.271 | B6 |
| 0.099 | B7 |
| 0.044 | B8 |
| 0.055 | B9 |
| 0.054 | B10 |

Molecular target: T1, human VEGFA
Test: BLI

| Kd [nM] | Binder |
| --- | --- |
| 2.08 | B37 |
| 2.82 | B38 |
| 14.4 | B39 |
| 2.61 | B40 |

What follows are binders tested against human PD-L1 ECD (human, UniProt Q9NZQ7) (assay: BLI).
human PD-L1 ECD, sequence (Q9NZQ7 19-238): as the sequence (Q9NZQ7 19-238) above

| Kd [nM] | Binder |
| --- | --- |
| 4.54 | B2 |
| 6.39 | B3 |
| 4.64 | B5 |
| 8.12 | B36 |
| 4.75 | B10 |
